Experimental data published in patent US20210054030.

What was measured:
[1] = system: TALE-(CP)3-VP64 (Xanthomonas (TALE scaffold)?); assay: cell_activity; conditions: HEK293T
[2] = system: TALE-(CV)3-VP64 (Xanthomonas (TALE scaffold)?); assay: cell_activity; conditions: HEK293T
[3] = system: TALE-(FT)3-VP64 (Xanthomonas (TALE scaffold)?); assay: cell_activity; conditions: HEK293T
[4] = system: TALE-(NP)3-VP64 (Xanthomonas (TALE scaffold)?); assay: cell_activity; conditions: HEK293T
[5] = system: TET1 TALE-VP64 (RG) (Xanthomonas (TALE scaffold)?); assay: cell_activity; conditions: 5mC at CpG (cellular, high); HeLa
[6] = system: TALE-HD (MAPK6 target) (Xanthomonas (TALE scaffold)?); assay: inhibition; conditions: MspI protection, 25 C
[7] = 6mA at bases 7-9 of the site, forward strand

Sequence: CTGGCCAAATACGTA (double strand) [6mA reporter]
- activity (fold EGFP induction) [1, 7]: > 5
- activity (fold EGFP induction) [2, 7]: > 5
- activity (fold EGFP induction) [3, 7]: > 5
- activity (fold EGFP induction) ([4]; 6mA at bases 7-9 of the site, forward strand, strongest of the 6mA-specific RVDs): > 5

Sequence: CTGGCCAAATACGTA (double strand) [A reporter]
- 6mA/A selectivity ratio [1]: > 5 6mA/A ratio
- 6mA/A selectivity ratio [2]: > 5 6mA/A ratio
- 6mA/A selectivity ratio [3]: > 5 6mA/A ratio
- 6mA/A selectivity ratio [4]: > 5 6mA/A ratio

Sequence: TAGGCGTCCTCCGCGAC (double strand) [TET1 promoter, HeLa (highly methylated)]
- activity (fold induction) [5]: 10

Sequence: TTCAGCTGGATCCCGGGAGGAGCGGATATAACCAGG (double strand) [MAPK6 probe, 5hmC]
- binding signal (fold higher Ki than for C) ([6]; 5hmC at second C of the MspI site CCGG (C14)): > 30

Sequence: TTCAGCTGGATCCCGGGAGGAGCGGATATAACCAGG (double strand) [MAPK6 probe, 5mC]
- binding signal (fold higher Ki than for C) ([6]; 5mC at second C of the MspI site CCGG (C14)): > 30
